Results on two molecules are retold here after patent US20180021429A1, “ANTICANCER AGENTS OR ANTIMETASTATIC AGENTS USING FSTL1 AND COMBINATION DRUG THEREOF” (PHARMA FOODS INTERNATIONAL CO., LTD., priority 2015, published 2018).

Entries after “also recorded” stand apart in the source; their conditions may differ.

Test [1] has as its system induction of mesenchymal stem cells (MSCs) by FSTL1. Briefly: Inhibitory activity against induction of MSC by FSTL1, CD45-negative cells (Examples 6, 8, 12). In kind it is cell-based, mouse. The settings on record: antibody 10 μg/mL. Here is the method:
(§1) Mouse bone marrow cells prepared in the same way as in Example 4 were supplemented with 50 ng/mL (final concentration) of FSTL1 and 10 μg/mL of the anti-FSTL1 antibody (#5-2, #5-3, #5-8, #5-10, 45-43, #6-55, or #7-34) or a control antibody anti-DNP antibody and cultured under stimulation. 11 days thereafter, the number of cells was counted while the cells were stained with a PE-Cy5-labeled anti-CD45 antibody (BD Pharmingen/Becton, Dickinson and Company, Cat. No. 555484), and the content of CD45-negative cells reported to generally contain MSCs at a high rate was analyzed by flow cytometry using FACScan to calculate the percentage and number of MSCs per culture (FIG. 5A).
Mouse bone marrow cells prepared in the same way as in Example 4 were supplemented with 20 ng/mL (final concentration) of FSTL1 and 10 μg/mL of the anti-FSTL1 antibody (#5-2, #5-3, #5-8, #5-10, #5-43, #6-55, #8-1, #8-4, #8-7, and #8-8) or a control antibody anti-DNP antibody and cultured under stimulation. 8 days thereafter, the number of cells was counted while the cells were stained with a PE-Cy5-labeled anti-CD45 antibody, and the content of CD45-negative cells was analyzed by flow cytometry using FACScan to calculate the percentage and number of MSCs per culture (FIG. 6A).
Mouse bone marrow cells prepared in the same way as in Example 4 were supplemented with 20 ng/mL (final concentration) of FSTL1 and 10 μg/mL of the anti-FSTL1 antibody (#5-2, #5-8, #6-55, #7-34, #8-1, #8-4, #8-7, or #8-8) or a control antibody anti-DNP antibody and cultured under stimulation. 8 days thereafter, the number of cells was counted while the cells were stained with a PE-Cy5-labeled anti-CD45 antibody, and the content of CD45-negative cells was analyzed by flow cytometry using FACScan to calculate the percentage and number of MSCs per culture (FIG. 7).
as §1, with “35A).” for “5A).”
Mouse bone marrow cells prepared in the same way as in Example 4 were supplemented with 20 ng/mL (final concentration) of FSTL1 and 10 μg/mL of the anti-FSTL1 antibody (#5-2, #5-3, #5-8, #5-10, #5-43, #6-55, #8-1, #8-4, #8-7, and #8-8) or a control antibody anti-DNP antibody and cultured under stimulation. 8 days thereafter, the number of cells was counted while the cells were stained with a PE-Cy5-labeled anti-CD45 antibody, and the content of CD45-negative cells was analyzed by flow cytometry using FACScan to calculate the percentage and number of MSCs per culture (FIG. 36A).
Mouse bone marrow cells prepared in the same way as in Example 4 were supplemented with 20 ng/mL (final concentration) of FSTL1 and 10 μg/mL of the anti-FSTL1 antibody (#5-2, #5-8, #6-55, #7-34, #8-1, #8-4, #8-7, or #8-8) or a control antibody anti-DNP antibody and cultured under stimulation. 8 days thereafter, the number of cells was counted while the cells were stained with a PE-Cy5-labeled anti-CD45 antibody, and the content of CD45-negative cells was analyzed by flow cytometry using FACScan to calculate the percentage and number of MSCs per culture (FIG. 37).

Test [2] shares this test system. Briefly: Inhibitory activity against MSC induction, ALCAM-/PDGFRA-positive cells (Example 4). In kind it is cell-based. The settings on record: mouse bone marrow cells; FSTL1 50 ng/mL; antibody 10 μg/mL; 11 days; vs control antibody. Here is the method: It is known that when bone marrow cells are stimulated with FSTL1, mesenchymal stem cells (MSCs) having pluripotency or self-proliferative capacity grow (Cancer Research 73: 6185, 2013). Thus, 2×10^7 cells/well of bone marrow cells collected from the thigh bone of a C57BL/6 mouse were suspended in 3 mL/well of RPMI1640 (GIBCO/Thermo Fisher Scientific Inc., Cat. No. C11875500BT) medium containing 2% fetal bovine serum, supplemented with 50 ng/mL (final concentration) of FSTL1 (R&D Systems, Inc. Cat#1694-FN-050) and 10 μg/mL of the anti-FSTL1 antibody (#5-2, #5-3, #5-8, #5-10, #5-43, #6-55, or #7-34) or its isotype mouse IgG (anti-DNP antibody) as a control antibody “Control”, and cultured under stimulation (6-well plate). 11 days thereafter, the number of cells was counted while the cells were stained with a PE-labeled anti-ALCAM antibody
(eBioscience, Cat. No. 12-1661-82) and a PE-labeled anti-PDGFRA antibody (eBioscience, Cat#12-1401-81) in order to examine the expression of MSC markers, and the contents of ALCAM-positive cells and PDGFR-positive cells were analyzed by flow cytometry using FACScan (Becton, Dickinson and Company, Code. BECTON-DICKINSON-FACSCAN) to calculate the number of each positive cell per culture.
It is known that when bone marrow cells are stimulated with FSTL1, mesenchymal stem cells (MSCs) having pluripotency or self-proliferative capacity grow (Cancer Research 73: 6185, 2013). […] 11 days thereafter, the number of cells was counted while the cells were stained with a PE-labeled anti-ALCAM antibody (eBioscience, Cat. No. 12-1661-82) and a PE-labeled anti-PDGFRA antibody (eBioscience, Cat#12-1401-81) in order to examine the expression of MSC markers, and the contents of ALCAM-positive cells and PDGFR-positive cells were analyzed by flow cytometry using FACScan (Becton, Dickinson and Company, Code. BECTON-DICKINSON-FACSCAN) to calculate the number of each positive cell per culture.

[3] abbreviates: Example 12, FIG. 7/37, FSTL1 20 ng/mL, 8 days.

B1: #6-55: chicken-mouse chimeric anti-FSTL1 antibody clone; variable regions SEQ ID NO: 783 (light), 785 (heavy) (antibody, V domains shown)
VH: AVTLDESGGGLQTPGGALSLVCKGSGFTFTSVTMQWVRQAPGKGLEWVASVCSGSSTYYAPAVKGRATISRDNGQSTVRLQLSNLRPEDTGTYYCAKIAGRARWSCTSAAYNIDAWGHGTEVIVSS
VL: ASTQPSSVSAIPGETVKITCSGGGNNYGWYQQRSPGSAPVTVIYYNDNRPSNIPSRFSGSTSGSTSTLTITGVQADDEAIYYCGSWDSNTDSGIFGAGTTLTVL
modifications: mouse constant regions
Regarding B1, the “inhibitory activity against the expansion of CD45-negative cells by FSTL1” value is “exhibited inhibitory activity against the expansion of CD45-negative cells by FSTL1; also recorded: Inhibitory activity was confirmed” in test [1] (Example 8, FIG. 6A/36A, FSTL1 20 ng/mL, 8 days); “higher inhibitory activity was confirmed in the order of #7-34, #5-2, #6-55, and #8-7” in test [1] (setting [3]). Also, in test [2], the “inhibitory activity against the expansion of ALCAM-positive cells and PDGFRA-positive cells by FSTL1” value was “slightly strong tendency of inhibitory activity”.

B2: #7-34: chicken-mouse chimeric anti-FSTL1 antibody clone; variable regions SEQ ID NO: 787 (light), 789 (heavy) (antibody, V domains shown)
VH: AVTLDESGGGLQTPGGGLSLVCKASGFTFSSVTMQWVRQAPGKGLEWVASICSGSSTYYGPAVKGRATISRDNGQNTVRLQLNNLRAEDTATYYCAKIVGRGRWSCTSAAYNIDAWGHGTEVIVSS
VL: ASTQPSSVSANPGETVKITCSGGGNNYGWYQQKSPGSAPVTVIYYNNNRPSNIPSRFSGSTSGSTSTLTITGVQAEDEAVYYCGSYEGSTDSGIFGAGTTLTVL
modifications: mouse constant regions
In the case of B2, the “inhibitory activity against the expansion of CD45-negative cells by FSTL1” value was “higher inhibitory activity and substantially completely inhibited the action of FSTL1” in test [1] (Example 6, FIG. 5A/35A, FSTL1 50 ng/mL, 11 days); “higher inhibitory activity was confirmed in the order of #7-34, #5-2, #6-55, and #8-7; also recorded: stronger inhibitory activity was confirmed in the order of clone #7-34, #5-2, 46-55, and #8-7” in test [1] (setting [3]). In test [2], the “inhibitory activity against the expansion of ALCAM-positive cells and PDGFRA-positive cells by FSTL1” value is listed as “slightly strong tendency of inhibitory activity”.
